The results in this text go back to publication PMC9270183 (The Journal of Experimental Medicine, 2022).

This assay addresses T1, 417N/484K/501Y RBD mutant (SARS-CoV-2, Wuhan-Hu-1 RBD backbone …, 417N | 484K | 501Y).
T1 construct: also called RBD KEN
Description: BLI. As to conditions: both partners purified.

Residue numbers refer to the chain shown, from its start.

B1: V019 (antibody, V domains shown)
VH: QVQLVQSGAEVKKPGSSVKVSCKASGGTFSTYTFSWVRQAPGQGLEWMGRIIPILGIANYAQKFQGRITITADKSTSTAYMELSSLRSEDTAVYYCAWGSYSYGYFVDIWGQGTMVTVSS
VL: DIVMTQTLLSLSVTPGQPASISCKSSQSLLHSDGKTYLYWYLQKPGQSPQLLIYEVSSRFSGVPDRFSGSGSGTDFTLKISRVEAEDVGVYYCMQGIQFHWTFGQGTKLEIK
notes: IgG; donor BRA13; source: recombinant monoclonal IgG, produced and purified as previously described
Take B1: the affinity, expressed as Kd, was 3.31 nM.

B2: V022 (antibody, V domains shown)
VH: EVQLVESGGGLVKPGGSLRLSCAASGFTFSSYSMNWVRQAPGKGLEWVSSISSTNNYIYNADSVKGRFTISRDNAKNSLYLQMNSLRAEDTAVYYCARDPAGRYSYGLYYFYYMDVWGKGTTVTVSS
VL: QSALTQPASVSGSPGQSITISCTGTSSDVGGYNYVSWYQQRPGKAPKLMIYDVSNRPSGVSDRFSGSKSGNTASLTISGLQAEDEADYYCTSYTSSSSLYVFGTGTKVTVL
notes: as for B1
In turn, B2 displayed a Kd of 5.71 nM.

B3: V014 (antibody, V domains shown)
VH: EVQLVESGGGLVQPGGSLRLSCAASGFTFSSYDMHWVRQATGKGLEWVSAIGTAGDTYYPGSVKGRFTISRENAKNSLYLQMNSLRAGDTAVYYCARGVITMVRGVIRDYYYYGMDVWGQGTTVTVSS
VL: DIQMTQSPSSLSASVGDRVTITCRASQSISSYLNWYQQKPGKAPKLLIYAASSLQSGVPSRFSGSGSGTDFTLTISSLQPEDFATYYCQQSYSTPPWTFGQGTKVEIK
notes: as for B1
The molecule B3 came in with a Kd of 27.3 nM.

B4: V021 (antibody, V domains shown)
VH: QVQLQESGPGLVKPSQTLSLTCTVSGGSISSGSYYWSWIRQPVGKGLEWIGRIYTSGSTNYNPSLKSRVTISVDTSKNQFSLELSSVTAADRAVYYCARESSPASIPVRGVIWWFDPWGQGTLVTVSS
VL: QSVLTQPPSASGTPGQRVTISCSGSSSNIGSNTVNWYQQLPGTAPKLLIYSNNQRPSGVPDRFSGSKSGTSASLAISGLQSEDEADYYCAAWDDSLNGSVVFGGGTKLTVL
notes: IgG; donor BRA13
In turn, B4 returned a Kd of 32.6 nM.

B5: V062 (antibody, V domains shown)
VH: QLQLQESGPGLVKPSETLSLTCTVSSGSISSSSYYWGWIRQPPGKGLEWIGSIYYSGSTYYNPSLKSRVTISVDTSKNQFSLKLSSVTAADTAVYYCARHWRENFAHAFDIWGQGTMVTVSS
VL: QSALTQPASVSGSPGQSITISCTGTSSDVGSYDLVSWFQQHPGKAPKLMIYEVTKRPSGVSNRFSGSKSGNTASLTISGLQAEDEADYYCCSYVGSSTYWVFGGGTKLTVL
notes: IgG; donor BRA15; source: recombinant monoclonal IgG, produced and purified as previously described
In turn, B5 came in with a Kd of 1.89 nM.

B6: V017 (antibody, V domains shown)
VH: EVQLVESGGGLVQPGGSLRLSCVASGFTFSTYSMNWVRQAPGKGLEWVSYISSSSSTIYYADSVKGRFTISRDNAKSSLYLQMNSLRAEDTAVYYCASGLCGGDCPLTCWGQGTLVTVSS
VL: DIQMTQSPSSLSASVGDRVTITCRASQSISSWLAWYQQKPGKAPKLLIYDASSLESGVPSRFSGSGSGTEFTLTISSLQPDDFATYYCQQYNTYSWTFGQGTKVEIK
notes: as for B1
As to B6, the affinity, expressed as Kd, was 27.1 nM.

B7: V011 (antibody, V domains shown)
VH: QVQLVQSGAEVKKPGASVKVSCKASGYIFTSYDINWVRQATGQGLEWMGWMNPNSGNTGYAQKFQGRVTMTRNTSISTAYMELSSLRSEDTAVYYCARASSSLTYYFDYWGQGTLVTVSS
VL: SYELTQPPSVSVAPGKTARITCGENNIGSKSVHWYQQKPGQAPVLVVYDDSDRPSGIPERFSGSNSGNTATLTISRVEAGDEADYYCQVWDSSSDPVVFGGGTKLTVL
notes: as for B1
B7 registered a Kd of 6.96 nM.

B8: V002 (antibody, V domains shown)
VH: EVQLVESGGGLVQPGRSLRLSCAASGFTFDEYAMHWVRQAPGKGLEWVSGSSWNSGTIGYADSVKGRFTISRDNAKNSLYLQMNSLRAEDTALYYCAKSQGDYGGNSGAGYFQHWGQGTLVTVSS
VL: B7 VL with E24G, V44M, D95E, P96V, V97Y, G101T, L105V
notes: as for B1
The molecule B8 gave a Kd of 979 nM.

B9: V064 (antibody, V domains shown)
VH: EVQLVESGGGLVQPGGSLRLSCAASGLTVSRNYMRWVRQAPGKGLEWVSLIYSGGSTFYGDSVKGRFTISRDNSKNTLYLQMNSLRAEDTAVYYCARDLVRDGMDVWGQGTTVTVSS
VL: EIVMTQSPATLSVSPGERATLSCRASQSVSSNLAWYQQKPGQAPRLLIYGASTRATGIPARFSGSGSGTEFTLTISSLQSEDFAVYYCQQYNNWTFGQGTKVEIK
notes: as for B5
Turning to B9, binding was characterised by a dissociation constant (Kd) of 1.91 nM. This Kd is about 510-fold lower than that of the molecule before.

B10: V010 (antibody, V domains shown)
VH: QVQLQESGPGLVKPSETLSLTCTVSGGSISSYYWSWIRQPPGKGLEWIGYIYYNGSTNYNPSLKSRVTISLDTSKNQFSLKLSSVTAADTAVYYCASDYYDSSGYYYGFDYWGQGTLVTVSS
VL: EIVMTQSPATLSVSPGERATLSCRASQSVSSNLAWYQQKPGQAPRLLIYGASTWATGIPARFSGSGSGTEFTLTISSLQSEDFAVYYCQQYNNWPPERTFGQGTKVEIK
notes: as for B1
Molecule B10 returned a Kd of 2.11 nM.

B11: V025 (antibody, V domains shown)
VH: QVQLVQSGAEVKKPGASVKVSCKASGYTFTSYGISWVRQAPGQGLEWMGWISVYNGKTNYAQKLQGRVTMTTDTSTSTAYMELRSLISDDTAVYYCARADRYNWDYGSSWGQGTLVTVSS
VL: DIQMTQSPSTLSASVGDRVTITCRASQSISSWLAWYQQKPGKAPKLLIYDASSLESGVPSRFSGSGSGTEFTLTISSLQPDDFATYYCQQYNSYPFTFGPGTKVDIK
notes: as for B1
As for B11, the Kd came to 2.84 nM. This Kd and that of the molecule before are within 1.5-fold of each other.

B12: V063 (antibody, V domains shown)
VH: QVQLVESGGGVVQPGRSLRLSCAASGFPFSSFGMHWVRQAPGKGLEWVAVISSDGSNKYYADSVKGRFTISRDNSKNTLYLQMNSLRAEDTAVYYCAKEFTYVVVTAFWGTENFDIWGQGTMVTVSS
VL: DIQMTQSPSTLSASVGDRVTITCRASQSISSWLAWYQQKPGKAPNLLIYKASALESGVPSRFSGSGSGTEFTLTISSLQPDDFATYYCQQYNSYPITFGQGTRLEIK
notes: as for B5
As for B12, binding was put at a Kd of 3.34 nM.

B13: V016 (antibody, V domains shown)
VH: QVQLVESGGGVVQPGRSLRLSCAASGFTFSNYGMHWVRQAPGKGLEWVAVISYDGSNKYYADSVKGRFTISRDNSKNTLYLQMNSVRVEDTAVYYCAKGSFGYSYVHTYFDYWGQGTLVTVSS
VL: B12 VL with N45K, K50D, A53S, T72I, Y94P, P95M, I96Y, R103K
notes: as for B1
For B13, binding was characterised by a dissociation constant (Kd) of 4.43 nM.

B14: V024 (antibody, V domains shown)
VH: QVQLVESGGGVVQPGRSLRLSCAASGFTFSSYGMHWVRQAPGKGLEWVAVISYDGSNKYYADSVKGRFTISRDNSKNTLYLQMNSLRGEDTAVYYCAKAGYGYSYGYGQIDYWGQGTLVTVSS
VL: not shown
notes: IgG; donor BRA13
Take B14: the Kd was 33.2 nM.

B15: V013 (antibody, V domains shown)
VH: QVQLVESGGGVVQPGRSLRLSCAGSGFIFSSFAMHWVRQAPGKGLEWVAVVSYDGDNKYYADSVKGRFTISRDNSKNTLYLQMDSLRPEDTAVYFCGRDEAALWIQRWYREIDFWGQGTLVTVSS
VL: QSVLTQPPSVSGTPGQRVTISCSGSSSNTGRNPVTWYQQFPGSAPKLLISRNNQRPSGVPDRFSGSKSGTSASLAISGLQSEDEADYYCAAWDDNLNGQVFGGGTKVTVL
notes: as for B1
As to B15, the Kd was 166 nM.

B16: V009 (antibody, V domains shown)
VH: EVQLVQSGAEVKKPGESLKISCKGSGYRFTSYWIGWVRQMPGKGLEWMGIIYAGDSDTRYSPSFQGQVTISVDKSISTAYLQWSSLKASDTAMYYCATTMTTGYFDYWGQGTLVTVSS
VL: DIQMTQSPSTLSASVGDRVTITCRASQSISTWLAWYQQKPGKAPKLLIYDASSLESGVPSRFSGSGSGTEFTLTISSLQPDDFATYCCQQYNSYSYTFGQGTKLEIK
notes: as for B1
Turning to B16, the affinity, expressed as Kd, was 1.83 nM.

B17: V015 (antibody, V domains shown)
VH: EVQLVESGGGLVQPGGSLRLSCAASGFTFNSYWMSWVRQAPGKGLEWVANIKQDGSEKYYVDSVKGRFTISRDNAKNSLYLQMNSLRAEDTAVYYCARLPTYYSGFDYWGQGTLVTVSS
VL: NFMLTQPHSVSESPGKTVTISCTGSSGSIASNYVQWYQQRPGSAPTTVIYEDNQRPSGVPDRFSGSIDSSSNSASLTISGLKTEDEADYYCQSYDSTNRGVVFGGGTKLTVL
notes: as for B1
As for B17, binding was put at a Kd of 14.3 nM.

B18: V020 (antibody, V domains shown)
VH: QVQLVESGGGVVQPGRSLRLSCAASGFTFSSYGMHWVRQAPGKGLEWVAVISYDGSNKYYADSVKGRFTISRDNSKNTLYLQMNSLRAEDTAVYYCAKGGWFGELLRYFDYWGQGTLVTVSS
VL: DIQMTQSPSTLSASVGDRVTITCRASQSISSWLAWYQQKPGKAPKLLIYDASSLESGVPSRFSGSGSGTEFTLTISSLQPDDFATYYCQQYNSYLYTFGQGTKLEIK
notes: as for B1
Molecule B18 yielded a Kd of 94.8 nM.

As usually defined, the Kd is the free concentration of one partner at which half of the binding sites on the other are occupied at equilibrium, for simple one-to-one binding. Lower therefore signals a tighter complex.
